Laboratory results reported in the nanobody polyreactivity screen of Harvey et al. (2022).

Assay: yeast display, Sf9 membrane polyspecificity reagent, FACS + sequencing; frameworks hold sequencing errors
Outline: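 In a synthetic yeast display library (Saccharomyces cerevisiae BJ5465), nanobody expression was induced with galactose for 36–48 hours. FACS gates were set low and high (top ~1%) using anti-HA fluorescence for expression and streptavidin fluorescence for binding of the Sf9 membrane reagent. Each polyreactivity label is drawn from the gate of origin.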

Sequence | polyreactivity (PSR sort gate)
QVQLVESGGGLVQAGGSLRLSCAASGRTFSKYTMGWYRQEPGKESELVAVISRSGTRTYYADSVKGRFTISRDNANNTVYLQMNSMKPEDTAVYYCAAKDERRSFGMGYWGQGTQVTVTS | high polyreactivity
QVQLVESGGGLVQAGGSLRLSCAASGRTIASYTMGWYRQAPGKERELVAAISKSGGSTYYADSVKGRFTISRDNAKNTVYLQMNSLKPEDTAVYYCAKRRSGNVRKYDYWGQGTQVTVSS | high polyreactivity
QVQLVESGVGLVQAGGSLSLSCAASGFTISLNTMGWYRQAPGKERELVAAITYSGTRTYYADSVKGRFTISRDNAKNTVDLQMNRLKPEDTAVYYCAARHGQSWQWLEYDYWGQGTQVTVSS | low polyreactivity
QVQLVESGGGLVQAGGSLRLSCAASGSIFSSYAMGWYRQAPGKERELVAAITSGGSTYYADSVKGRFTISRDNAKNTVYLQLFSLKPEDTAVYYCAARQVRTSKLHMGYWGQGTQVTVSS | low polyreactivity
QVQHVESGGGLVQAGGSLRLSCAASGSIFYIYAMGWYRQAPGKERELVAAISGSGSTYYADSVKGRFTISRDNAKNTVYLQMNSLKPEDTAVYDCAVELWRFWGAYTYTYDYWGQGTLVTVSS | high polyreactivity
QVQLVESGGGLVQAGGSLRLSCAASGSIFEEYAMGWYRQAPGKERELVARIDESGGSTYYADSVKGRFTISRDNAKNTVYLQMNSLKPEDTAVYYCAAERYSDSWGYYSVDEGSWEMDYWGQGTQVTVSS | low polyreactivity
QVQLVESGGGLVQAGGSLRLSCAASGRTFHRYAMGWYRQAPVKEREVLAAITSSGGSTNYADSVKVRFTISRDNAKNTVYVQMNSLQPEDTAVYYCATDRYRYTSHPWSRGFDYWGQGTQVTVSS | low polyreactivity
QVQLVESGGGLVQAGGSLSLSCAASGGIFQVNSMGWYRQATGKEREVLAAISWSVGRTYYADSVKGRFTISRDNAKNTVYLQMNSLKPEDTAVYYCARYGKRGYYYWGQGTQVTVSS | low polyreactivity
QVQLVESGGGLVQAGGSLRLSCAASGSTFVTNGMGWYRQEPGKERELVAAISGNVGSTYYADSVKGRFTISRDNEKNTVYLQMNSLKPEDTAVYYCAARQYRPSDYDYWGQGTQVTVSS | low polyreactivity
QVQLVESGGGLVQAGGSLRLSCAASGRTFYRYAMGWYRQAPGKERELVAAITRRGDSTSYADSVKGRFTISRDNAKNTVYLQMNSLKPEDTAVYYCATLVQGSVYGLYGGGYWGQGTQVTVSS | low polyreactivity
QVQLVESGGGLVQAGGSLRLSCAASGITFWKYAMGWYRQAPGKERELVAAISGRGGSTYYADSVKGRFTISRDNAKNTVYLQMNSLKPEDTAVYYCAVGYRGWDGYWGQGTQVTVSS | high polyreactivity
QGLLVQSGGGLVQAGGSLRLSCAASGFTFRFYAMLWYRQAPGNERELVAAISSTGSTNYADSVKARCTISRDNAKNTVYLQKNSLKPEDTAVYYCNTDYYNRYYDWLIWYYYWGQGTQVTVSS | high polyreactivity
QVQLVESGGGLVQAGGSLRLSCAASGRIFSRNAMGWYIQAPGKERELVAAISRSGTSTYYADSVKGRFTISRDNAKYTVYLQMNSLKPEDTAVYYCAADYPAVISIRRYDYWGQGTQVTVSS | low polyreactivity
QVQLVESGGGLVQAGGSLRLRCAASGYIFRYYAMGWYRQAPGKEREFVAAISRNGGSTYYADSVKGRFTISRDKAKNTVYLQMNSLKPEDTAVYNCNVVGHDDKYDYWGQGTQVTVSS | high polyreactivity
QVQLVESGGGLVQAGGSLRLSCAASGSTFIFNAMGWYRQAPGKERELVAGISSGSPYYADSVKGRFTISRDNAKNTVYLQMNSLIPEDTAVYYCATKLRRWRFYAAYDYWGQGTQVTVSS | high polyreactivity
QVQIVESGGGLVQAGGSLRLSCAASGFILNYYGMGWYRQAPGKERELVATISRGASTNYADSVKGRFTISRDNAKNTVYLQMISLKPEETEVYSCAKDYGDWGQGTQVTVSS | low polyreactivity
QVQLVESGGGLVQAGGSLRLSCAASGRIFGNYAMGWYRQAPGKERELVAAITSGARTYYADSVKGRFTISRDNAKNTVYLQMNSLKPEDTAVYYCAAYHKSYSYRYDYWGQGTQVTVSS | high polyreactivity
QVQLVESGGGLVQAGGSLRLSCAASGFIFTDYAMGWYRQAPGKEREFVAAIDWSGGNTYYADSVKGRFTISRDHAKNTVYLQMNRLKPEDTAVYYCNAGDYFVRFVYYWDDERYDYWGQGTQVTVSS | low polyreactivity
QVQLVESGGGLVQAGGSLRLSCAASGGTQRYYAMGWYRQAPGKERDFVASISRSGGSTYYADTVKGRFTISRDNAKNTVYLQMNSLKPEDTAVYYCAAYWSPGYTTRRGYWGQGTQVTVSS | high polyreactivity
QVQLVESGGGLVQAGGSLRLSCAASGIIIRKYAMGWYRQAPGKERELVAAITTRGSRTYYADSVKGRFTISRDNAKNTVYLQMNSLKPEDTAVYYCAGDRYTVRMDYWGQGTQVTVSS | high polyreactivity
QVQLVESGGGLVQAGGSLRLSCAASGSTFGHYAMGCYRQAPGKERDLVAAISWSGASTYYADSVKGRFTISRDNAKNTVYLQMNSLKPEDTAVYYCAAESYRQTYYVGDGYEDDYWGQGTQVTVSS | low polyreactivity
QVQLVESGGGLVQAGGSLRLSGASYGFIFVWYAMGWYRQAPGKEREFVAAITSLGGSTYYADSVKGRFTISRDNEKNSVYLHMYSLNPEDTADYYCNAEFFYRGSGYDSWGQGTQVTVSS | high polyreactivity

Sequence | polyreactivity (PSR sort gate)
QVPLVESGGGLVQAGGSLRLSCAPSGSTYYFYTMGWYIQAPGKERELVAAIRDSGSSTYYADSVKGRFTISRDNAKNTVYLQMNSLKPEDTAVYYCATGVDTYSLTVEHDSWGQGTQVTVSS | low polyreactivity
QVQIVESGGGLVQAGGSLRLSCAASGRTFRENAMGWYRQAPGKERELVAAAISSGDGTNYADSVKGRFTISRDYAKNTVYLQMNSLQPEDTAVYYCAADGPRDSYDYWGQGTQVTVSS | low polyreactivity
QVQLVESGGGLVQAGGSLRLSCASSGRTFAGNVMGWYRQAPGKERELVAAITGRGGSTYYADSVKGRFTISRDNAKNTVYLQMNSLKPEDTAVYYCNALTWPRYYYWGQGTQVTVSS | high polyreactivity
QVQLVDSGGGLVQAGGSLRLSCPASGFIFAKYAKGWSRQAPGKERELGAAITSGGSTNYADSVTGRFTISRDNAKNTVYLQMHSLKPEDTAVYYCNRGFDWWYRYRHYDYWGQGTQVTVSS | low polyreactivity
QVQLVESGGGLVQAGGSLRLSCAASGFIFASNAMGWYRQAPGKERELVAAITRSGGITYYADSVKGRFTISRDNAKNTVYLQMNSLKPEDTAVYYCNKGRRTKNSAYYDYWGQGTQVTVSS | high polyreactivity
QVQLVESCGGLVQAGGSLRLSCAASGSIFPPYAMGWYRQAPGKERELVATITIRGGSTYYADSVKGRFTISRDNAKNTVYLQMNSLKPEDTAVYYCAADYTKYYRRYYYWGQGTQVTVSS | high polyreactivity
QVQLVESGGGLVQAGGSLRLSCAASGRTFVYYAMGWYRQAPGKERELVASISSVGTTKYADSVQGRFTISRANAKNTVYLQMNSLKPEDTAVYYCAAVPLSRNIFDSWGQGTQVTVSS | low polyreactivity
QVQLVESGGGLVQAGGSLRISCAASGSTIAGYTMGLYRQAPGKEMELVAAISRRGSRTYYADSVKGRFTISRDNAKNTVYLQMNSLKPEDTAVYYCNARNRVYYTLSGYGYWGQGTQVTVSS | high polyreactivity
QVQLVESGGGLVQAGGSLRLSCAASGRTFLPNAMGWYRQAPGKERELVAVITSGGSTNYADSVKGRFTISRDNAKNTVYLQMKSLKPEDTAVYYCAARRWSSSQGHWGKSAGYGYWGQGTQVTVSS | low polyreactivity
QDQLVESRGGLVQAGGSLGLSCAASGSIFSYYAMGWYRQAPGKERELVAAITSGGATTYYADSVKGRFTISRDYAKNTVYLQMNSLKPEDTAVYYCAAGYYVYYRWWELDYWGQGTQVTVSS | low polyreactivity
QVQLVESGGGLVQAGGSLRLSCAASGFIFSYNVMGWYRQAPGKERELVAAISSGGGRTYYADSVKGRFTISRDNAKNTVYLQMNSLKPEDTAVYYCNAYRLSRVQLYYWGQGTQVTVSS | high polyreactivity
QVQLVESGGGLVQAGGSLRLSCAASGYTLKYYAMGWYRQAPGKERELVAVISRGGSTYYADSVKGRFTISRDNAKNTVDLQMNSLKPEDTAVYYCAKRPTQGYYPYGYWGQGTQVTVSS | high polyreactivity
QVQLVESGGGLVQAGGSLRLSCAASGRIICFYPMGWYRQAPGKEREFVAAIRWSGGTTYYADSVKGRFTISRDNAKNNVYLQMNSLKPEDTAVYYCAAGRAVGHSLYSRGYDYWGQGTQVTVSS | low polyreactivity
QVQLVESGGGLVQAGVSLRLSCVPPDLPSTLNVMGWYRQAPGKERELVAAITSSGGSTRYADCVKGRFTISRDNAKNTVYLQMNSLKPEDTAVYYCAASRDKYGNRVRPFDYWGQGTQVTVSS | low polyreactivity
QVQLVESGGGLVQAGGSLRLSCAASGSIFSPYAMGWYRQAPGKERELVAAISFRASTTYYADSVKGRFTISRDNAKNTVYLQMNSLKPEDTAVYYCSASALYSWFWGLYDYWGQGTQVTVSS | low polyreactivity
QVQLVASGGGLVQTGGSLRLSCAASGSTCVWYTIGWYRQAPGKERELVADISRSGGSTYYADSVKGRFTISRDNAKKTIYLQKNSLKAEDTAVYYCARYGYVYNTREPPKVVTFDYSGQGTQVTVSS | high polyreactivity
QVQLVESGGGLVQAGSSLRLSCAASGFTFNRYAMGWYRQAPGKERELVAAISWSGGSTYYADSVKGRFTISRDNAKNTVYLQMNSLKPEDTEVYYCSDATAYYRYRGGYDYWGQGTQVTVSS | high polyreactivity
QVQLVESGGGLVQAGGSLRLSCAASGRIFDRNAMVWYRQEPWKERELVAAIDDSGGDTSYADSVKGRFTISRDNAKNTVYLQMNSLKPEDTAVYYCNAGYADFVTYPRYYYWGQGTQVTLSS | low polyreactivity
QDQLVESGGGLVQAGGSLRLSCAASGYTFRYAMGWNIQAPGKERELVAGITSSGGSTYYADSVKGRFTISRDNAKNTVYLQMNSLKPEDTAVYYCNADFFVWLYPHYLIFDYWGQGTQVTVSS | low polyreactivity
QVQLVESGGGFVQARGSLRLSCAACGRTYFPNAMGWYRQAPGKERELVAAITTSGGITYYADSVKGRFTISRDNAKNTVYLQMNSLKPEDTAVYYCATEWRTTGYRYYYWGQGTQVTVSS | high polyreactivity
QDQLVESGGGLVQAGGSLRLSCAASGFILNWYAMGVYRQAPGKERELVAAISWTTSDTYYADSVKGRFTISRDYAKNTVYLQMNSLKPEDTAVYYCNAKFYAYYVTFVLHYDYWGHGTQVTVSS | low polyreactivity
